Reference: patent publication US20240400708A1

Key:
[1] = molecular target: feline FcRn complex (FcRn-α subunit and β-microglobulin), biotin labeled (feline); assay: SPR, pH 6
[2] = molecular target: feline FcRn complex (FcRn-α subunit and β-microglobulin), biotin labeled (feline); assay: SPR, pH 7.4

Binder | Kd [1] [nM] | Kd [2] [nM]
feline IgG1a S252H/Q311Y (antibody, part only; not given: variable domains and light chain, not shown: another chain or arm of the molecule; small tags and cut ends) constant: ASTTAPSVFPLAPSCGTTSGATVALACLVLGYFPEPVTVSWNSGALTSGVHTFPAVLQASGLYSLSSMVTVPSSRWLSDTFTCNVAHPPSNTKVDKTVRKTDHPPGPKPCDCPKCPPPEMLGGPSIFIFPPKPKDTLHISRTPEVTCLVVDLGPDDSDVQITWFVDNTQVYTAKTSPREEQFNSTYRVVSVLPILHYDWLKGKEFKCKVNSKSLPSPIERTISKAKGQPHEPQVYVLPPAQEELSRNKVSVTCLIKSFHPPDIAVEWEITGQPEPENNYRTTPPQLDSDGTYFVYSKLSVDRSHWQRGNTYTCSVSHEALHSHHTQKSLTQSPGK | 12.1 | 36.5
feline IgG1a S252H/S428M/Q311Y (antibody, part only; not given: Variable domains, not shown: another chain or arm of the molecule) constant: ASTTAPSVFPLAPSCGTTSGATVALACLVLGYFPEPVTVSWNSGALTSGVHTFPAVLQASGLYSLSSMVTVPSSRWLSDTFTCNVAHPPSNTKVDKTVRKTDHPPGPKPCDCPKCPPPEMLGGPSIFIFPPKPKDTLHISRTPEVTCLVVDLGPDDSDVQITWFVDNTQVYTAKTSPREEQFNSTYRVVSVLPILHYDWLKGKEFKCKVNSKSLPSPIERTISKAKGQPHEPQVYVLPPAQEELSRNKVSVTCLIKSFHPPDIAVEWEITGQPEPENNYRTTPPQLDSDGTYFVYSKLSVDRSHWQRGNTYTCSVMHEALHSHHTQKSLTQSPGK | 5.73 | 141
feline IgG1a S252H/S434L (antibody, part only; not given: Variable domains, not shown: another chain or arm of the molecule) constant: ASTTAPSVFPLAPSCGTTSGATVALACLVLGYFPEPVTVSWNSGALTSGVHTFPAVLQASGLYSLSSMVTVPSSRWLSDTFTCNVAHPPSNTKVDKTVRKTDHPPGPKPCDCPKCPPPEMLGGPSIFIFPPKPKDTLHISRTPEVTCLVVDLGPDDSDVQITWFVDNTQVYTAKTSPREEQFNSTYRVVSVLPILHQDWLKGKEFKCKVNSKSLPSPIERTISKAKGQPHEPQVYVLPPAQEELSRNKVSVTCLIKSFHPPDIAVEWEITGQPEPENNYRTTPPQLDSDGTYFVYSKLSVDRSHWQRGNTYTCSVSHEALHLHHTQKSLTQSPGK | 6.08 | 3.79
feline IgG1a S252H/S434F (antibody, part only; not given: Variable domains, not shown: another chain or arm of the molecule) constant: ASTTAPSVFPLAPSCGTTSGATVALACLVLGYFPEPVTVSWNSGALTSGVHTFPAVLQASGLYSLSSMVTVPSSRWLSDTFTCNVAHPPSNTKVDKTVRKTDHPPGPKPCDCPKCPPPEMLGGPSIFIFPPKPKDTLHISRTPEVTCLVVDLGPDDSDVQITWFVDNTQVYTAKTSPREEQFNSTYRVVSVLPILHQDWLKGKEFKCKVNSKSLPSPIERTISKAKGQPHEPQVYVLPPAQEELSRNKVSVTCLIKSFHPPDIAVEWEITGQPEPENNYRTTPPQLDSDGTYFVYSKLSVDRSHWQRGNTYTCSVSHEALHFHHTQKSLTQSPGK | 0.391 | 24.1
feline IgG1a S252H/S428M/S434Y (antibody, part only; not given: Variable domains, not shown: another chain or arm of the molecule) constant: ASTTAPSVFPLAPSCGTTSGATVALACLVLGYFPEPVTVSWNSGALTSGVHTFPAVLQASGLYSLSSMVTVPSSRWLSDTFTCNVAHPPSNTKVDKTVRKTDHPPGPKPCDCPKCPPPEMLGGPSIFIFPPKPKDTLHISRTPEVTCLVVDLGPDDSDVQITWFVDNTQVYTAKTSPREEQFNSTYRVVSVLPILHQDWLKGKEFKCKVNSKSLPSPIERTISKAKGQPHEPQVYVLPPAQEELSRNKVSVTCLIKSFHPPDIAVEWEITGQPEPENNYRTTPPQLDSDGTYFVYSKLSVDRSHWQRGNTYTCSVMHEALHYHHTQKSLTQSPGK | 0.138 | 20.7
feline IgG1a S252H/S434W (antibody, part only; not given: Variable domains, not shown: another chain or arm of the molecule) constant: ASTTAPSVFPLAPSCGTTSGATVALACLVLGYFPEPVTVSWNSGALTSGVHTFPAVLQASGLYSLSSMVTVPSSRWLSDTFTCNVAHPPSNTKVDKTVRKTDHPPGPKPCDCPKCPPPEMLGGPSIFIFPPKPKDTLHISRTPEVTCLVVDLGPDDSDVQITWFVDNTQVYTAKTSPREEQFNSTYRVVSVLPILHQDWLKGKEFKCKVNSKSLPSPIERTISKAKGQPHEPQVYVLPPAQEELSRNKVSVTCLIKSFHPPDIAVEWEITGQPEPENNYRTTPPQLDSDGTYFVYSKLSVDRSHWQRGNTYTCSVSHEALHWHHTQKSLTQSPGK | 0.469 | 31.1
feline IgG1a S252H/S428M/S434W (antibody, part only; not given: Variable domains, not shown: another chain or arm of the molecule) constant: ASTTAPSVFPLAPSCGTTSGATVALACLVLGYFPEPVTVSWNSGALTSGVHTFPAVLQASGLYSLSSMVTVPSSRWLSDTFTCNVAHPPSNTKVDKTVRKTDHPPGPKPCDCPKCPPPEMLGGPSIFIFPPKPKDTLHISRTPEVTCLVVDLGPDDSDVQITWFVDNTQVYTAKTSPREEQFNSTYRVVSVLPILHQDWLKGKEFKCKVNSKSLPSPIERTISKAKGQPHEPQVYVLPPAQEELSRNKVSVTCLIKSFHPPDIAVEWEITGQPEPENNYRTTPPQLDSDGTYFVYSKLSVDRSHWQRGNTYTCSVMHEALHWHHTQKSLTQSPGK | 0.135 | 20.8
feline IgG1a S252H/S428M/Q311W (antibody, part only; not given: Variable domains, not shown: another chain or arm of the molecule) constant: ASTTAPSVFPLAPSCGTTSGATVALACLVLGYFPEPVTVSWNSGALTSGVHTFPAVLQASGLYSLSSMVTVPSSRWLSDTFTCNVAHPPSNTKVDKTVRKTDHPPGPKPCDCPKCPPPEMLGGPSIFIFPPKPKDTLHISRTPEVTCLVVDLGPDDSDVQITWFVDNTQVYTAKTSPREEQFNSTYRVVSVLPILHWDWLKGKEFKCKVNSKSLPSPIERTISKAKGQPHEPQVYVLPPAQEELSRNKVSVTCLIKSFHPPDIAVEWEITGQPEPENNYRTTPPQLDSDGTYFVYSKLSVDRSHWQRGNTYTCSVMHEALHSHHTQKSLTQSPGK | 3.14 | 54.6
feline IgG1a S252H/S428M/S434F (antibody, part only; not given: Variable domains, not shown: another chain or arm of the molecule) constant: ASTTAPSVFPLAPSCGTTSGATVALACLVLGYFPEPVTVSWNSGALTSGVHTFPAVLQASGLYSLSSMVTVPSSRWLSDTFTCNVAHPPSNTKVDKTVRKTDHPPGPKPCDCPKCPPPEMLGGPSIFIFPPKPKDTLHISRTPEVTCLVVDLGPDDSDVQITWFVDNTQVYTAKTSPREEQFNSTYRVVSVLPILHQDWLKGKEFKCKVNSKSLPSPIERTISKAKGQPHEPQVYVLPPAQEELSRNKVSVTCLIKSFHPPDIAVEWEITGQPEPENNYRTTPPQLDSDGTYFVYSKLSVDRSHWQRGNTYTCSVMHEALHFHHTQKSLTQSPGK | 0.121 | 26.9
feline IgG1a S252H/S428M (antibody, part only; not given: Variable domains, not shown: another chain or arm of the molecule; small tags and cut ends) constant: ASTTAPSVFPLAPSCGTTSGATVALACLVLGYFPEPVTVSWNSGALTSGVHTFPAVLQASGLYSLSSMVTVPSSRWLSDTFTCNVAHPPSNTKVDKTVRKTDHPPGPKPCDCPKCPPPEMLGGPSIFIFPPKPKDTLHISRTPEVTCLVVDLGPDDSDVQITWFVDNTQVYTAKTSPREEQFNSTYRVVSVLPILHQDWLKGKEFKCKVNSKSLPSPIERTISKAKGQPHEPQVYVLPPAQEELSRNKVSVTCLIKSFHPPDIAVEWEITGQPEPENNYRTTPPQLDSDGTYFVYSKLSVDRSHWQRGNTYTCSVMHEALHSHHTQKSLTQSPGK | 2.65 | 101
feline IgG1a S252H/S428M/D312P (ID No. 221) (antibody, part only; not given: Variable domains, not shown: another chain or arm of the molecule) constant: ASTTAPSVFPLAPSCGTTSGATVALACLVLGYFPEPVTVSWNSGALTSGVHTFPAVLQASGLYSLSSMVTVPSSRWLSDTFTCNVAHPPSNTKVDKTVRKTDHPPGPKPCDCPKCPPPEMLGGPSIFIFPPKPKDTLHISRTPEVTCLVVDLGPDDSDVQITWFVDNTQVYTAKTSPREEQFNSTYRVVSVLPILHQPWLKGKEFKCKVNSKSLPSPIERTISKAKGQPHEPQVYVLPPAQEELSRNKVSVTCLIKSFHPPDIAVEWEITGQPEPENNYRTTPPQLDSDGTYFVYSKLSVDRSHWQRGNTYTCSVMHEALHSHHTQKSLTQSPGK | 8.22 | 330
feline IgG1a S252H/S428M/S434L (antibody, part only; not given: Variable domains, not shown: another chain or arm of the molecule) constant: ASTTAPSVFPLAPSCGTTSGATVALACLVLGYFPEPVTVSWNSGALTSGVHTFPAVLQASGLYSLSSMVTVPSSRWLSDTFTCNVAHPPSNTKVDKTVRKTDHPPGPKPCDCPKCPPPEMLGGPSIFIFPPKPKDTLHISRTPEVTCLVVDLGPDDSDVQITWFVDNTQVYTAKTSPREEQFNSTYRVVSVLPILHQDWLKGKEFKCKVNSKSLPSPIERTISKAKGQPHEPQVYVLPPAQEELSRNKVSVTCLIKSFHPPDIAVEWEITGQPEPENNYRTTPPQLDSDGTYFVYSKLSVDRSHWQRGNTYTCSVMHEALHLHHTQKSLTQSPGK | 8.59 | 3.55
feline IgG1a S252H/S428M/S434P (antibody, part only; not given: Variable domains, not shown: another chain or arm of the molecule) constant: ASTTAPSVFPLAPSCGTTSGATVALACLVLGYFPEPVTVSWNSGALTSGVHTFPAVLQASGLYSLSSMVTVPSSRWLSDTFTCNVAHPPSNTKVDKTVRKTDHPPGPKPCDCPKCPPPEMLGGPSIFIFPPKPKDTLHISRTPEVTCLVVDLGPDDSDVQITWFVDNTQVYTAKTSPREEQFNSTYRVVSVLPILHQDWLKGKEFKCKVNSKSLPSPIERTISKAKGQPHEPQVYVLPPAQEELSRNKVSVTCLIKSFHPPDIAVEWEITGQPEPENNYRTTPPQLDSDGTYFVYSKLSVDRSHWQRGNTYTCSVMHEALHPHHTQKSLTQSPGK | 7.45 | 55.6
feline IgG1a D312K (antibody, part only; not given: Variable domains, not shown: another chain or arm of the molecule) constant: ASTTAPSVFPLAPSCGTTSGATVALACLVLGYFPEPVTVSWNSGALTSGVHTFPAVLQASGLYSLSSMVTVPSSRWLSDTFTCNVAHPPSNTKVDKTVRKTDHPPGPKPCDCPKCPPPEMLGGPSIFIFPPKPKDTLSISRTPEVTCLVVDLGPDDSDVQITWFVDNTQVYTAKTSPREEQFNSTYRVVSVLPILHQKWLKGKEFKCKVNSKSLPSPIERTISKAKGQPHEPQVYVLPPAQEELSRNKVSVTCLIKSFHPPDIAVEWEITGQPEPENNYRTTPPQLDSDGTYFVYSKLSVDRSHWQRGNTYTCSVSHEALHSHHTQKSLTQSPGK | 5.86 | 56.1
feline IgG1a S252H/S434P (antibody, part only; not given: Variable domains, not shown: another chain or arm of the molecule) constant: ASTTAPSVFPLAPSCGTTSGATVALACLVLGYFPEPVTVSWNSGALTSGVHTFPAVLQASGLYSLSSMVTVPSSRWLSDTFTCNVAHPPSNTKVDKTVRKTDHPPGPKPCDCPKCPPPEMLGGPSIFIFPPKPKDTLHISRTPEVTCLVVDLGPDDSDVQITWFVDNTQVYTAKTSPREEQFNSTYRVVSVLPILHQDWLKGKEFKCKVNSKSLPSPIERTISKAKGQPHEPQVYVLPPAQEELSRNKVSVTCLIKSFHPPDIAVEWEITGQPEPENNYRTTPPQLDSDGTYFVYSKLSVDRSHWQRGNTYTCSVSHEALHPHHTQKSLTQSPGK | 9.32 | 12.8
